The results in this text go back to publication PMC7790862.

The target of this experiment is HA-tagged human Junctophilin-2 with seven point mutations in the Joining region (Ad-mut^PG1JPH2) (human) (UniProt Q9BR39). The experiment in a line: co-IP + proximity ligation.

Regarding “L-type Ca2+ channel pore-forming subunit α1C (natural protein)”, the percent reduction of the interaction against WT-JPH2 lay within 30 to 40%.
